Assay results from US9744220B2, “Compositions and methods for treating inflammatory diseases” (priority 2013, dated 2017).

How the values were obtained:
cardiac fibroblasts = assay: sPDNF stimulation of primary cardiac fibroblasts, chemokine transcripts by qPCR; type: cell-based, mouse; conditions: 3 hr, dose-dependent
Description: FIG. 7A is a graph depicting MCP-1 and FKN expression in cardiomyocytes of mice infected with T cruzi. FIG. 7B is a graph depicting MCP-1 and FKN expression in cardiac fibroblasts of mice infected with T cruzi. T cruzi infection: Primary cultures of mouse cardiomyocytes (FIG. 7A) and cardiac fibroblasts (FIG. 7B) were plated in 6-well plates, infected with T cruzi Tulahuen strain (MOI=10) for 3, 24, and 72 hr, and MCP-1 and FKN transcripts were quantified by qPCR. Chemokine gene expression was normalized to HPRT and fold change calculated relative to uninfected cells. Points represent mean±SD fold change expression of triplicate samples. The experiment was repeated, and similar results were obtained. FIG. 7C is a graph depicting MCP-1 and FKN expression in cardiomyocytes of mice injected with sPDNF. FIG. 7D is a graph depicting MCP-1 and FKN expression in cardiac fibroblasts of mice injected with sPDNF. sPDNF stimulation: Primary cardiomyocytes (FIG. 7C) and cardiac fibroblasts (FIG. 7D) were plated in 6-well plates, serum starved overnight, then stimulated with the indicated concentration of sPDNF (3 hr), and MCP-1 and FKN transcripts were quantified by qPCR. Chemokine gene expression was normalized to HPRT and fold change calculated relative to vehicle-treated cells; *P<0.05, **P<0.01, and ***P<0.005. […]

H9c2 cardiomyocytes = assay: sPDNF stimulation of H9c2 cardiomyocytes, secretion by ELISA; type: cell-based, rat; conditions: H9c2, 3 hr
Description: FIG. 8A is a graph showing dose-response of MCP-1 secretion to sPDNF stimulation. H9c2 cardiomyocytes were plated in 6-well plates, grown in low serum (0.1% FCS) overnight, and stimulated with the indicated doses of sPDNF for 3 hr. Secretion of MCP-1, MIP-2α and IL-6 was determined by ELISA. FIG. 8B is a graph showing dose-response of MCP-transcript expression. H9c2 cardiomyocytes were plated in 6-well plates, grown in low serum (0.1%) overnight, and stimulated with the indicated doses of sPDNF for 3 hr, and MCP-transcript quantified by qPCR. Chemokine gene expression was normalized to HPRT and fold change calculated relative to vehicle-treated cells. Points represent mean±SD fold change expression of triplicate samples; *P<0.05, **P<0.01, and ***P<0.005. FIG. 8C is a graph showing time course of MCP-1 and FKN transcripts expression. H9c2 cardiomyocytes were plated in 6-well plates (triplicate), grown in low serum (0.1%) overnight, stimulated with sPDNF (1 μg/ml) for the indicated times, and MCP-1 and FKN (data not shown) transcripts quantified by qPCR. Three experiments gave similar results.
Primary cardiomyocytes and cardiac fibroblasts, and H9c2 cardiomyocytes were seeded at 6-8×10^4 cells per well in DMEM/10% FCS and allowed to adhere overnight, serum starved (DMEM/0.1% FCS overnight), and treated with sPDNF (0.5 ng/ml-8 μg/ml, 0-16 h). Cell supernatants were collected and stored at −80° C. and cell monolayers rinsed with PBS and collected in Trizol for qPCR analysis.
MCP-1: 96-well Maxisorp plates (Nunc) were coated overnight with relevant supernatants or MCP-1 standards (R&D Systems, 479-JE/CF) in coating buffer (50 mM NaHCO3/Na2CO3, pH 9.6, 0.02% NaN3), blocked in 5% BSA/PBST, reacted with a MCP-1 detection antibody (Santa Cruz, SC-28879; 1:200; 2 hr), and then alkaline-phosphatase (AP) conjugated secondary antibody (Sigma A3687; 1:1000; 1 hr). Between each step, plates were washed 2-4 times with PBST. […] MCP-1 concentrations were calculated relative to a 4-parametric standard curve using the SOFTmax Pro program. […]

B1: sPDNF: N-terminal short-form of T cruzi PDNF that contains Trk-binding sites, recombinant; amino acids 1-588 of SEQ ID NO: 2; JR-100 is the commercial name (protein, listed as Trypanosoma cruzi)
chain: MGKTVVVASRMFWLMFFVPLLLAICPSEPAYALAPGSSRVELFKRKNSTVPFEDKAGKVTERVVHSFRLPALVNVDGVMVAIADARYDTSNDNSLIDTVAKYSVDDGETWETQIAIKNSRVSSVSRVVDPTVIVKGNKLYVLVGSYYSSRSYWSSHGDARDWDILLAVGEVTKSTAGGKITASIKWGSPVSLKKFFPAEMEGMHTNQFLGGAGVAIVASNGNLVYPVQVTNKKKQVFSKIFYSEDDGKTWKFGKGRSDFGCSEPVALEWEGKLIINTRVDWKRRLVYESSDMEKPWVEAVGTVSRVWGPSPKSNQPGSQSSFTAVTIEGMRVMLFTHPLNFKGRWLRDRLNLWLTDNQRIYNVGQVSIGDENSAYSSVLYKDDKLYCLHEINTDEVYSLVFARLVGELRIIKSVLRSWKNWDSHLSSICTPADPAASSSESGCGPAVTTVGLVGFLSGNASQNVWEDAYRCVNASTANAERVRNGLKFAGVGGGALWPVSQQGQNQRYRFANHAFTLVASVTIHEAPRAASPLLGASLDSSGGKKLLGLSYDEKHQWQPIYGSTPVTPTGSWETGKRYHLVLTMANKI
Q: Which results are given for B1?
A: FKN transcripts (cardiac fibroblasts): increase; MCP-1 transcripts (cardiac fibroblasts): increase; secretion of IL-6 (H9c2 cardiomyocytes): did not alter; secretion of macrophage inflammatory protein-2a/MIP-2a/CXCL2 (H9c2 cardiomyocytes): did not alter; secretion of MCP-1 (H9c2 cardiomyocytes; dose-dependently): dramatically increased
